Results on 15 molecules are retold here after patent US20260043020A1, “BINDING MEMBERS WITH ALTERED DIVERSITY SCAFFOLD DOMAINS” (priority 2016, published 2026).

One assay deals with human Kv 1.3 (human) (UniProt P22001). The assay is described as follows: cell-based or functional assay.
In assay [1] the target is trypsin. The experiment in a line: monoclonal phage TRF ELISA. In general terms: In an ELISA, binding on a coated surface is turned into a signal by an enzyme label.
For assay [2], the target named is trypsin. The experiment in a line: phage TRF ELISA; GlyAla (Pro3Gly, Arg4Ala) mutant against the clone.
For assay [3], the target named is trypsin. The experiment in a line: flow cytometry of HEK293 cells 15 days post transfection, biotinylated trypsin/streptavidin-APC (FL4) against anti-Fc-PE (FL2).
Assay [4] addresses trypsin. The experiment in a line: flow cytometry, biotinylated trypsin with streptavidin-APC. On the technique in general: A flow cytometer gives signals particle by particle.
The target of the next assay is T1, human ASIC1a (human) (UniProt P78348).
T1 sequence (looked up): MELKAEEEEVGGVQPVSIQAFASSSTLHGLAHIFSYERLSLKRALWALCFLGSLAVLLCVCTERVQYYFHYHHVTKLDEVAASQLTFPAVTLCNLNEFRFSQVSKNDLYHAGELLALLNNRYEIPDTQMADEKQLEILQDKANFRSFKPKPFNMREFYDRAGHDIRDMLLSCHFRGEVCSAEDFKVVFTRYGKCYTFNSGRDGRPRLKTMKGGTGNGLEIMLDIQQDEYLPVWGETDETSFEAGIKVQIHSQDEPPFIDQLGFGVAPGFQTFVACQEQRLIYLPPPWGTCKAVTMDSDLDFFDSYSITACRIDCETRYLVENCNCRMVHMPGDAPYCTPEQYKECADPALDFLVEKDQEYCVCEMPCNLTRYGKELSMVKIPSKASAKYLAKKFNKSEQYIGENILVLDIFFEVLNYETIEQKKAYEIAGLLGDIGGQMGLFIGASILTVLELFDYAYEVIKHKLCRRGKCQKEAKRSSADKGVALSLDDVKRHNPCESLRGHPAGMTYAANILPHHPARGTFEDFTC
The experiment in a line: cell-based or functional assay.

The next assay addresses β-galactosidase. The assay is described as follows: monoclonal phage TRF ELISA on B-galactosidase.

Sequence of human Kv 1.3 (human) (P22001 whole entry): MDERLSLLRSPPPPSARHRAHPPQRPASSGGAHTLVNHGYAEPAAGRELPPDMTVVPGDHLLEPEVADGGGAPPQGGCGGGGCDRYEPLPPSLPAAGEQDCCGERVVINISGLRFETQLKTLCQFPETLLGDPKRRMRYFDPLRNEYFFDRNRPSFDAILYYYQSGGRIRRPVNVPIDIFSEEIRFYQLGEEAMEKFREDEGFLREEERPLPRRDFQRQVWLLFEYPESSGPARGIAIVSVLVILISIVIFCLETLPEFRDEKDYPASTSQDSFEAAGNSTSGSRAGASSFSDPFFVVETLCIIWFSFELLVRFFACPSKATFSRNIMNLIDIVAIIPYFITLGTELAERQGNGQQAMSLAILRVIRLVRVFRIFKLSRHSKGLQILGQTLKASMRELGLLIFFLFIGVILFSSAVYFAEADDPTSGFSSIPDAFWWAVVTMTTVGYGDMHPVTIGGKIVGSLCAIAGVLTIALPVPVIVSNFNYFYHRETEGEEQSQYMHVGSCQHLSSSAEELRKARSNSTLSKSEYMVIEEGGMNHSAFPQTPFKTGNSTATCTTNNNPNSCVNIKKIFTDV
Sequence of β-galactosidase (P00722 2-1024): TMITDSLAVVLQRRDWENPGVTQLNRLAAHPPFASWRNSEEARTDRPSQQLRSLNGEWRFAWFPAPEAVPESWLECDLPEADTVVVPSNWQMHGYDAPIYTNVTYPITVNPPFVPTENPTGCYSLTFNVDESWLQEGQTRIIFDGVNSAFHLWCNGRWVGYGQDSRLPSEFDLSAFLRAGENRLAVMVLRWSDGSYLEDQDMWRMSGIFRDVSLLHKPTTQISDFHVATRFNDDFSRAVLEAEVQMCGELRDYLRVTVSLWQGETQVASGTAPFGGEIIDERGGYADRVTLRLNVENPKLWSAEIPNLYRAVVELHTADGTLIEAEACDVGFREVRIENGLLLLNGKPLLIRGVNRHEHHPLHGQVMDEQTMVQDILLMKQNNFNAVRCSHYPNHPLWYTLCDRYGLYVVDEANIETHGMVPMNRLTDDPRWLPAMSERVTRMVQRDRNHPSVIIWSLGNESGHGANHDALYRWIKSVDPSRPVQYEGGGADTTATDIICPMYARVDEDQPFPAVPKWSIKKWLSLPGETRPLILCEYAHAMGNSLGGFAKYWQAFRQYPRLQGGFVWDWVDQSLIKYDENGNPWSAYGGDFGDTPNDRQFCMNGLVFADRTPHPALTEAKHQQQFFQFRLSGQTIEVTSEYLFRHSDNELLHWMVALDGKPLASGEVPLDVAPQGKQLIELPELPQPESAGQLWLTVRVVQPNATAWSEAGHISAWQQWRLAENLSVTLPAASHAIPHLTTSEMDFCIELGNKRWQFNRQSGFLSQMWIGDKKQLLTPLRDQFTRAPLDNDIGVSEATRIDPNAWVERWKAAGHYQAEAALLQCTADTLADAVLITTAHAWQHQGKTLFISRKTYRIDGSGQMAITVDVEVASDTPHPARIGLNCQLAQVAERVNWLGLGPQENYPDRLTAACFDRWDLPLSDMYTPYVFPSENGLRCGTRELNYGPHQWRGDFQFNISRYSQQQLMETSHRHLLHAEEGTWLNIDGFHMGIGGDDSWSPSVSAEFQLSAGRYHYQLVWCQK

B1: KB_A07_Shk (antibody, V domains shown)
VH: EVQLVESGGGLVRPGGSLRLSCAASGFTFSSYAMSWVRQAPGKGLEWVSAISGSGGSTYYADSVKGRFTISRDNTKNSLYLQMTSLRADDTAFYYCVKDFGPGYGTGWFDYWGPGTLVTVSS
VL: NWYQQKPGKAPKLLIYAAGVRSCIDTIPKSRCTAFQCKHSMKYRLSFCRKTCGTCSRSGVPSRFSGSGSGTDFTLTISSLQPEDFATYYCQQGASPPYTFGQGTKVEIKR
B1: the IC50, inhibition of huKv1.3 currents (QPatch, CHO cells) with human Kv 1.3 (human) amounted to 40 nM.

B2: KB_A07 MoKa-1 fusion (antibody, V domains shown)
VH: EVQLVESGGGLVRPGGSLRLSCAASGFTFSSYAMSWVRQAPGKGLEWVSAISGSGGSTYYADSVKGRFTISRDNTKNSLYLQMTSLRADDTAFYYCVKDFGPGYGTGWFDYWGPGTLVTVSS
VL: DIQMTQSPSSLSASVGDRVTITCRASQSISSYLNWYQQKPGKAPKLLIYAAGVINVKCSLPQQCIKPCKDAGMRFGKCMNKKCRCYSSRSGVPSRFSGSGSGTDFTLTISSLQPEDFATYYCQQGASPPYTFGQGTKVEIKRT
Consider B2, for which the IC50, inhibition of huKv1.3 currents (QPatch, CHO cells) in the assay with human Kv 1.3 (human) was above 10000 nM.

B3: KB_A07_Kaliotoxin (KTX) (antibody, V domains shown)
VH: EVQLVESGGGLVRPGGSLRLSCAASGFTFSSYAMSWVRQAPGKGLEWVSAISGSGGSTYYADSVKGRFTISRDNTKNSLYLQMTSLRADDTAFYYCVKDFGPGYGTGWFDYWGPGTLVTVSS
VL: DIQMTQSPSSLSASVGDRVTITCRASQSISSYLNWYQQKPGKAPKLLIYAAGVGVEINVKCSGSPQCLKPCKDAGMRFGKCMNRKCHCTPKSRSGVPSRFSGSGSGTDFTLTISSLQPEDFATYYCQQGASPPYTFGQGTKVEIKR
In the assay with human Kv 1.3 (human), B3 gave an IC50, inhibition of huKv1.3 currents (QPatch, CHO cells) of 900 nM.

B4: KB_C09 (scFv, V domains shown)
VH: EVQLVESGGGLVRPGGSLRLSCAASGFTFSSYAMSWVRQAPGKGLEWVSAISGSGGSTYYADSVKGRFTISRDNTKNSLYLQMTSLRADDTAFYYCVKDFGPGYGTGWFDYWGPGTLVTVSS
VL: AVNWYQQLPGKAPKLLIYAAGRCPRILMRCKQDSDCLAGCVCGPNGFCGGGSGVPDRFSGSIDSSSNSASLTISGLRAEDEADYYCQSYDSSNHWVFGGGTKLTVLG
B4: the trypsin binding signal (FU) with trypsin [1] was 89400 FU. Besides, the % reduction in binding signal with trypsin [2] was 100%.

B5: KB_C10 (scFv, V domains shown)
VH: EVQLVESGGGLVRPGGSLRLSCAASGFTFSSYAMSWVRQAPGKGLEWVSAISGSGGSTYYADSVKGRFTISRDNTKNSLYLQMTSLRADDTAFYYCVKDFGPGYGTGWFDYWGPGTLVTVSS
VL: AVNWYQQLPGKAPKLLIYAAGPCPRILMRCKQDSDCLAGCVCGPNGFCGADSGVSDRFSGSKSGTSASLAITGLQAEDEGDYYCAAWDDSLNGLVFGGGTKVTVLG
B5: in the assay with trypsin [1], the trypsin binding signal (FU) amounted to 119000 FU. Also, the % reduction in binding signal with trypsin [2] is 100%.

B6: KB_A12 scFv-Fc, membrane anchored on HEK293 cells (Fc fusion)
VH: EVQLVESGGGLVRPGGSLRLSCAASGFTFSSYAMSWVRQAPGKGLEWVSAISGSGGSTYYADSVKGRFTISRDNTKNSLYLQMTSLRADDTAFYYCVKDFGPGYGTGWFDYWGPGTLVTVSS
VL: QSVLTQPPSVSEAPRQRVTITCSGSSSNIGNNAVNWYQQLPGKAPKLLIYAAGRCPRILMRCKQDSDCLAGCVCGPNGFCGANSGVSDRFSAAKSGTSASLAINGLRSEDEADYYCAAWDDSLNGYVFGTGTKLTVLGQP
Take B6: in the assay with trypsin [3], the cells in Q1 (trypsin/streptavidin-APC positive, anti-Fc-PE negative) is 1.54%; the cells in Q2 (anti-Fc-PE positive and trypsin/streptavidin-APC positive) was found to be 11.2%; the cells in Q3 (anti-Fc-PE positive, trypsin/streptavidin-APC negative) was 3.78%. This molecule displayed a % of transfected HEK293 cells dual stained for Fc and trypsin in the assay with trypsin [4] of 11%.

B7: KB_B10 (scFv, V domains shown)
VH: EVQLVESGGGLVRPGGSLRLSCAASGFTFSSYAMSWVRQAPGKGLEWVSAISGSGGSTYYADSVKGRFTISRDNTKNSLYLQMTSLRADDTAFYYCVKDFGPGYGTGWFDYWGPGTLVTVSS
VL: QSVLTQLPSVSEAPRQRVTITCGRAMCPRILMRCKQDSDCLAGCVCGPNGFCGTGNWYQQHPGKAPKLIIFDVSKRPSGVPDRFSASKSGNTASLTISGLQAEDEADYYCNSYTSSNTWVFGGGTQLTVLG
Turning to B7, the trypsin binding signal (FU) in the assay with trypsin [1] was 9270 FU. Moreover, the % reduction in binding signal with trypsin [2] came to 100%.

B8: KB_B12 (scFv, V domains shown)
VH: EVQLVESGGGLVRPGGSLRLSCAASGFTFSSYAMSWVRQAPGKGLEWVSAISGSGGSTYYADSVKGRFTISRDNTKNSLYLQMTSLRADDTAFYYCVKDFGPGYGTGWFDYWGPGTLVTVSS
VL: TQPPSVSEAPRQRVTITCGERPCPRILMRCKQDSDCLAGCVCGPNGFCGANNWYQQLPGSSPTTVIYEDNQRPSGVPDRFSGSIDSSSNSASLTISGLKTEDEADYYCQSYDSSNQVFGGGTKVTVLG
As to B8, the trypsin binding signal (FU) in the assay with trypsin [1] amounted to 17400 FU. The molecule further displayed a % reduction in binding signal with trypsin [2] of 97%.

B9: KB_A07 IgG1 (EETI-II fusion, isotype control) (antibody, V domains shown)
VH: EVQLVESGGGLVRPGGSLRLSCAASGFTFSSYAMSWVRQAPGKGLEWVSAISGSGGSTYYADSVKGRFTISRDNTKNSLYLQMTSLRADDTAFYYCVKDFGPGYGTGWFDYWGPGTLVTVSS
VL: YLNWYQQKPGKAPKLLIYAAGVCPRILMRCKQDSDCLAGCVCGPNGFCGSRSGVPSRFSGSGSGTDFTLTISSLQPEDFATYYCQQGASPPYTFGQGTKVEIKR
As for B9, in the assay with human ASIC1a (human), the % ASIC1a current remaining, 6 µM KnotBody (QPatch, HEK293 cells) was 70.9%. In addition, the IC50, inhibition of huKv1.3 currents (QPatch, CHO cells) in the assay with human Kv 1.3 (human) is above 10000 nM.

B10: KB A12_B-gal_F07 (scFv, V domains shown)
VH: EVQLVESGGGLVRPGGSLRLSCAASGFTFSSYAMSWVRQAPGKGLEWVSAISGSGGSTYYADSVKGRFTISRDNTKNSLYLQMTSLRADDTAFYYCVKDFGPGYGTGWFDYWGPGTLVTVSS
VL: AVNWYQQLPGKAPKLLIYAAGRCRTTANVRRHCKQDSDCLAGCVCGPNGFCGANSGVSDRFSAAKSGTSASLAINGLRSEDEADYYCAAWDDSLNGYVFGTGTKLTVLG
In the case of B10, in the assay with β-galactosidase, the TRF signal is 246000.

B11: KB_A12 IgG1 (EETI-II fusion, isotype control) (antibody, V domains shown)
VH: EVQLVESGGGLVRPGGSLRLSCAASGFTFSSYAMSWVRQAPGKGLEWVSAISGSGGSTYYADSVKGRFTISRDNTKNSLYLQMTSLRADDTAFYYCVKDFGPGYGTGWFDYWGPGTLVTVSS
VL: AVNWYQQLPGKAPKLLIYAAGRCPRILMRCKQDSDCLAGCVCGPNGFCGANSGVSDRFSAAKSGTSASLAINGLRSEDEADYYCAAWDDSLNGYVFGTGTKLTVLG
Consider B11, for which, in the assay with human ASIC1a (human), the % ASIC1a current remaining, 3.3 µM KnotBody (QPatch, HEK293 cells) is 67.4%. Also, the IC50, inhibition of huKv1.3 currents (QPatch, CHO cells) with human Kv 1.3 (human) is above 10000 nM.

B12: KB_A12 Kaliotoxin (KTX) fusion (antibody)
VH: EVQLVESGGGLVRPGGSLRLSCAASGFTFSSYAMSWVRQAPGKGLEWVSAISGSGGSTYYADSVKGRFTISRDNTKNSLYLQMTSLRADDTAFYYCVKDFGPGYGTGWFDYWGPGTLVTVSS
VL: QSVLTQPPSVSEAPRQRVTITCSGSSSNIGNNAVNWYQQLPGKAPKLLIYAAGRGVEINVKCSGSPQCLKPCKDAGMRFGKCMNRKCHCTPKANSGVSDRFSAAKSGTSASLAINGLRSEDEADYYCAAWDDSLNGYVFGTGTKLTVLGQP
As to B12, the IC50, inhibition of huKv1.3 currents (QPatch, CHO cells) with human Kv 1.3 (human) was above 10000 nM.

B13: KB_A12_Shk (antibody, V domains shown)
VH: EVQLVESGGGLVRPGGSLRLSCAASGFTFSSYAMSWVRQAPGKGLEWVSAISGSGGSTYYADSVKGRFTISRDNTKNSLYLQMTSLRADDTAFYYCVKDFGPGYGTGWFDYWGPGTLVTVSS
VL: NWYQQLPGKAPKLLIYAAGRRSCIDTIPKSRCTAFQCKHSMKYRLSFCRKTCGTCANSGVSDRFSAAKSGTSASLAINGLRSEDEADYYCAAWDDSLNGYVFGTGTKLTVLG
In the assay with human Kv 1.3 (human), B13 showed an IC50, inhibition of huKv1.3 currents (QPatch, CHO cells) of 20 nM.

B14: KB_A07 scFv-Fc, membrane anchored on HEK293 cells (Fc fusion)
VH: EVQLVESGGGLVRPGGSLRLSCAASGFTFSSYAMSWVRQAPGKGLEWVSAISGSGGSTYYADSVKGRFTISRDNTKNSLYLQMTSLRADDTAFYYCVKDFGPGYGTGWFDYWGPGTLVTVSS
VL: DIQMTQSPSSLSASVGDRVTITCRASQSISSYLNWYQQKPGKAPKLLIYAAGVCPRILMRCKQDSDCLAGCVCGPNGFCGSRSGVPSRFSGSGSGTDFTLTISSLQPEDFATYYCQQGASPPYTFGQGTKVEIKRT
With B14, in the assay with trypsin [3], the cells in Q1 (trypsin/streptavidin-APC positive, anti-Fc-PE negative) came out at 3.65%; the cells in Q2 (anti-Fc-PE positive and trypsin/streptavidin-APC positive) was found to be 33.8%; the cells in Q3 (anti-Fc-PE positive, trypsin/streptavidin-APC negative) is 11.1%. This molecule also returned a % of transfected HEK293 cells dual stained for Fc and trypsin with trypsin [4] of 34%.

B15: KB_B11 (scFv, V domains shown)
VH: EVQLVESGGGLVRPGGSLRLSCAASGFTFSSYAMSWVRQAPGKGLEWVSAISGSGGSTYYADSVKGRFTISRDNTKNSLYLQMTSLRADDTAFYYCVKDFGPGYGTGWFDYWGPGTLVTVSS
VL: TQPPSVSEAPRQRVTITCGSRPCPRILMRCKQDSDCLAGCVCGPNGFCGSHNWYQQLPGSSPTTVIYEDNQRPSGVPDRFSGSIDRSSNSASLTISGLKTEDEADYYCQSYDSSNHRVVFGGGTKLTVLG
As for B15, the trypsin binding signal (FU) in the assay with trypsin [1] was 10300 FU. Besides, the % reduction in binding signal with trypsin [2] stood at 100%.
